The supplement of paper PMC9170038

System: MS2 coat protein
Test: apparent KD of MS2 coat protein; designed switch direction (-1 OFF switch, 1 ON switch): -1; higher = weaker reporter binding
In short: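 Designed RNA switches with common flanks were transcribed on Illumina chips by stalled E. coli RNA polymerase and titrated with SNAP-549-labelled MS2 coat protein, from 0.7 or 1.5 nM doubling to 3 µM, in Tris-HCl pH 7.5 buffer with KCl, MgCl2, BSA, DTT, tRNA and Tween-20. Steps lasted 0.8–1.5 h (lowest) to 10–20 min (highest). Titrations ran without input, with 200 uM small-molecule ligand, or with an oligonucleotide input. Normalised cluster fluorescence was curve-fitted, and apparent KD is the per-design median over clusters.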

[1] = Eterna round: R95, input ligand: microRNA oligo, concentration not stated
[2] = Eterna round: R95, input ligand: FMN 200 uM
[3] = Eterna round: R95, input ligand: none
[4] = input ligand: microRNA oligo, concentration not stated

| Sequence | apparent KD of MS2 coat protein (input ligand: FMN 200 uM) [nM] | apparent KD of MS2 coat protein (input ligand: none) [nM] | apparent KD of MS2 coat protein [1] [nM] | apparent KD of MS2 coat protein [2] [nM] | apparent KD of MS2 coat protein [3] [nM] | apparent KD of MS2 coat protein [4] [nM] |
| --- | --- | --- | --- | --- | --- | --- |
| CUAGUAUAUCAGGAUAUGAUAUUGUGUAGUAAAUCAGAAGGGAUGACAUGAGGAUCACCCAUGUUAAGGGAUGA [JR_Ex6_Sub047] (Eterna round: R97, puzzle: Exclusion 6) | 41.4 | 54.3 |  |  |  |  |
| CUAGUAUAUCAGGAUAUGAUUUUAUAUAGUGGAUCAGAAGGGAUAACAUGAGGAUCACCCAUGUUAAGGAGUGA [JR_Ex6_Sub041] (Eterna round: R97, puzzle: Exclusion 6) | 129 | 49.9 |  |  |  |  |
| CUAUCCAGAGGAUAUACGAGAUCGAAAGAUCGGCGAUCCCUACAUGAGGAUCACCCAUGUAGAAGGCUGGAUAG [Mod 17 - Jieux - Exclusion 2] (Eterna round: R97, puzzle: Exclusion 2) | 83.8 | 19.7 |  |  |  |  |
| CUAUUACGAGGAUAUGAUUUAAAUAACAUGAGGAUCACCCAUGUUUUUACGUUAUUAUGUUUAGAAGGCGUAUUGU [JR_E5_Sub026] (puzzle: Exclusion 5) |  |  | 43.4 |  |  |  |
| CUAUUGCGAGGAUAUGAUUUAAAUAACAUGAGGAUCACCCAUGUUUUUACGUUGUUAUGUUCAGAAGGCGUAUUGU [JR_E5_Sub024] (puzzle: Exclusion 5) |  |  | 41.4 |  |  |  |
| CUCAUGUGAGGAUAUAGUACUUCUUCUAUUAUUAUUGAGUACUAGAAGGCACAUGAGGAUCACCCAUGUAGUAC [Ex4 - 3 - 44] (puzzle: Exclusion 4) |  |  | 23.8 |  |  |  |
| CUCCUCAUGGCGCCUAAACACAUGAGGAUCACCCAUGUACAGGCUUUUUGCCGUCUUAUAAUAAAACCGAGGAUACG [Raaen] (puzzle: Sensor v3, turn-off variant 1) |  |  | 167 | 76.3 | 149 |  |
| CUCGGACAUGAGGAUCACCCAUGUGAGGAUAUGAUGCGAUCGUCGAAAGACGAUAGCAUCAGAAGGCACAAAUG [Fiskers Ex 1 - 25] (puzzle: Exclusion 1) |  |  | 73 |  |  |  |
| CUCGGACAUGAGGAUCACCCAUGUGAGGAUAUGGCGCGAUCGUCGAAAGACGAUAGCGCCAGAAGGCACAAAUG [LRO-Excl1-26] (puzzle: Exclusion 1) |  |  | 52 |  |  |  |
| CUCGUAUUAUACAUGAGGAUCACCCAUGUGGUCACCACUCACGAGGAUAUCCCGGGAAACCGAACGGAGAAGGUGUAGAGUCAU [Eternabot solution 44] (Eterna round: R96, puzzle: Exclusion NG 3) | 164 | 196 |  |  |  | 163 |
| CUCUAGUCAGGAUAUUAGUUGCCGCCUGGCAACAGGCGGCAUGAGAAGGGACUUGAGGAUCACCCAAGUAAAAG [Rabebete] (Eterna round: R97, puzzle: Exclusion 4) | 66.1 | 368 |  |  |  |  |
| CUCUGACAUGAGGAUCACCCAUGUGAGGAUAUGAUGCAGCAGUGGUCUACGCUGUGCAUCAGAAGGCACAUGUG (puzzle: Exclusion 1) |  |  | 124 |  |  |  |
| CUCUUACAUGAGGAUCACCCAUGUGAGGAUAUGCCCGGAGUAGCAGCAGAUCCUCUGGGCAGAAGGCACGUAGG [Eternabot (L1) Solution 98] (Eterna round: R97, puzzle: Exclusion 1) | 144 | 123 |  |  |  |  |
| CUCUUGUCAGGAUAUCUAAGCCACCUCCGGGCGGCCGAAUUAGAGAAGGGACAUGAGGAUCACCCAUGUAAAAG [Qumabi] (puzzle: Exclusion 4) |  |  | 138 | 30 | 174 |  |
| CUGAACCCGGUAGGAUAUAUUGUGGGCGGGCGUGGAACGACAUGAGGAUCACCCAUGUGAUUGAGGUAGAAGGGCCGAGAGGUU [Excl-NG2-LRO17] (Eterna round: R96, puzzle: Exclusion NG 2) | 42.6 | 42.8 |  |  |  | 31 |
| CUGACGUCAGGAUAUAGCAUACACUGACUAGAUGGACAGGGUUAGAAGGGACAUGAGGAUCACCCAUGUGGUUU [Eternabot (L1) Solution 81] (Eterna round: R97, puzzle: Exclusion 4) | 56.3 | 50.5 |  |  |  |  |
| CUGAGCAGACGGAAAUCCAACAUGAGGAUCACCCAUGUCUCAAAAGCUUUUUGCUUGUCUUAUUCUCCUCUGUUCUC [Edtile] (puzzle: Sensor v3, turn-off variant 1) |  |  | 71.2 | 13.8 | 12.9 |  |
| CUGAGCAGACGGAGAUCCAACAUGAGGAUCACCCAUGUCUCAAAAGCUCUUUGCUCGUCUUAUCCUCCUCUGUUCUC [Leriedor] (puzzle: Sensor v3, turn-off variant 1) |  |  | 333 | 31.5 | 30.1 |  |

| Sequence | apparent KD of MS2 coat protein (input ligand: FMN 200 uM) [nM] | apparent KD of MS2 coat protein (input ligand: none) [nM] | apparent KD of MS2 coat protein [1] [nM] | apparent KD of MS2 coat protein [2] [nM] | apparent KD of MS2 coat protein [3] [nM] | apparent KD of MS2 coat protein [4] [nM] |
| --- | --- | --- | --- | --- | --- | --- |
| CUGAGCAGACGGAGAUCCAACAUGAGGAUCACCCAUGUCUCAAAAGCUUUUUGCUUGUCUUAUUCUCCUCUGUUCUC [Bieda] (puzzle: Sensor v3, turn-off variant 1) |  |  | 35.5 | 13.5 | 11.1 |  |
| CUGAGGUAGCGGUCCUAUGACAUGAGGAUCACCCAUGUACCUUGCUAUAAGCUUUUUGCUCGUCUUAUGAUUCUCGG [JL Atriat mod 7] (puzzle: Sensor v3, turn-off variant 1) |  |  | 713 | 246 | 302 |  |
| CUGAGUAGUCAGGAUAUGCUGUACAAAAGUACAGCAGAAGGGAUUACAUGAGGAUCACCCAUGUGAACUUCAUG [)mei Ex6 B21] (Eterna round: R97, puzzle: Exclusion 6) | 681 | 652 |  |  |  |  |
| CUGAUGUGAGGAUAUCUACGCCAUGUCUUUGACAUGGCGCAAGAGAAGGCACAUGAGGAUCACCCAUGUACUUC [jl-ex4-4.41 ViennaUCT mod] (Eterna round: R97, puzzle: Exclusion 4) | 143 | 27.9 |  |  |  |  |
| CUGCUCCGUGUAGGAUAUGCGCGCAACCAACGCGCAGAAGGACAUGAGGAUCACCCAUGUAUGUUAUUAUCACGUGAGGCGCAA [Design 32] (Eterna round: R96, puzzle: Exclusion NG 1) | 25.7 | 18.5 |  |  |  | 13.8 |
| CUGCUCCGUGUAGGAUAUGCGCGCACCCACCGCGCAGAAGGACAUGAGGAUCACCCAUGUAUGUUAUUAUCACGUGAGGCGCAG [Design 35] (Eterna round: R96, puzzle: Exclusion NG 1) | 29.6 | 19.2 |  |  |  | 13.6 |
| CUGCUGAAGCUUUGCUUUAGUCGUACAUGAGGAUCACCCAUGUAGGAUAUGGUAGGCUUUGCUUACUAGAAGGAUAGAGUGAUC [salish99_ExNG3_r04_604] (Eterna round: R96, puzzle: Exclusion NG 3) | 72 | 61.9 |  |  |  | 82.4 |
| CUGCUGGAGCGGCGCUUUGGUCGUACAUGAGGAUCACCCAUGUAGGAUAUGGUAAAAUUCGCCUGCUAGAAGGAUAGAGUGGUC [salish99_ExNG3_r04_617] (Eterna round: R96, puzzle: Exclusion NG 3) | 135 | 88.1 |  |  |  | 62.5 |
| CUGGAGUCAGGAUAUAGGGCGGCUAUAACGCUCGCGCCGACCUAGAAGGGACUUGAGGAUCACCCAAGUAAAAU [Teerlaxe] (Eterna round: R97, puzzle: Exclusion 4) | 167 | 55.1 |  |  |  |  |
| CUGGUCCGAGGAUAUAUUAAGUGAAACAUGAGGAUCACCCAUGUUAUUUAAUGGAAAUAAAUAGAAGGCGGACUAG [Mat - Exclusion 5 - JL mod - D55] (puzzle: Exclusion 5) |  |  | 33.7 | 34.4 | 59.9 |  |
| CUGGUCCGAGGAUAUAUUAAGUGAUACAUGAGGAUCACCCAUGUAAUUUAAUGGAUAUAAAUAGAAGGCGGACUAG [Mat - Exclusion 5 - JL mod - D48] (puzzle: Exclusion 5) |  |  | 26.4 | 42.9 | 32.8 |  |
| CUGGUCCGAGGAUAUAUUAAGUGAUACAUGAGGAUCACCCAUGUAAUUUGAUGGAAGUAAAUAGAAGGCGGACUAG [Mat - Exclusion 5 - JL mod - D45] (puzzle: Exclusion 5) |  |  | 43 | 34.2 | 74 |  |
| CUGGUCCGAGGAUAUAUUAAGUGAUACAUGAGGAUCACCCAUGUUAUUUGAUGGAUAUUAAUAGAAGGCGGACUAG [Mat - Exclusion 5 - JL mod - D75] (puzzle: Exclusion 5) |  |  | 18.8 | 31.9 | 28.7 |  |
| CUGGUCCGAGGAUAUAUUUAGUGAAACAUGAGGAUCACCCAUGUUAUUAGAUGGAUGUAAAUAGAAGGCGGACUAG [Mat - Exclusion 5 - JL mod - D63] (puzzle: Exclusion 5) |  |  | 20.4 | 18.5 | 23.8 |  |
| CUGGUGUGAGGAUAUCAAAGACCUCGGGAAAGAACCGAGAAUGAGAAGGCACAUGAGGAUCACCCAUGUAACAA [Enerteon] (puzzle: Exclusion 4) |  |  | 17.9 |  |  |  |
| CUGGUGUGAGGAUAUCAAAGACCUCGGGAUAGUACCGAGGAUGAGAAGGCACAUGAGGAUCACCCAUGUAACAA [Armaleti] (puzzle: Exclusion 4) |  |  | 22.1 |  |  |  |
| CUGGUGUGAGGAUAUCAGGACACGCCCGCGGACGUGUCAAAUGAGAAGGCACAUGAGGAUCACCCAUGUGGGAC [Onzausin] (puzzle: Exclusion 4) |  |  | 31.7 |  |  |  |
